The values below come from patent publication US20260347464 (published 2026).

First the molecules themselves.
B1: H96 (antibody, V domains shown)
VH: QVQLQQWGAGLLKPSETLSLTCAVYGGSFSGYYWSWIRQPPGKGLEWIGEINHSGSTNYNPSLKSRVTISVDTSKNQFSLKLSSVTAADTAVYYCARESNSYGYGTDYWGQGTLVTVSS
VL: QSALTQPPSVSVSPGQTATITCSGDKLGEKYAFWYQQKPGQSPVLVIYQDNKRPSGIPERFTGSNSGNTATLTIFGTQTMDEADYYCQAWDSSTYVFGTGTKVTVL
B2: A14 (antibody, V domains shown)
VH: ETQLVESGGGLVQPGGSLRLSCAASGFPFSSYEMNWVRQAPGKGLEWVAEISSSGSTIYYADSVKGRFTISRDNAKKSLYLQMNSLRAEDTAVYYCARGRFEGYCSSTNCHTGAFDFWGQGTMVTVSS
VL: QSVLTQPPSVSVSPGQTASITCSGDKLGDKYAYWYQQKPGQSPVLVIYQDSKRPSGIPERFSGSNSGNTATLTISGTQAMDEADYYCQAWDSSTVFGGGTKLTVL
B3: C-C171 (antibody, V domains shown)
VH: QVQLQESGPGLVKPSGTLSLSCTVSGGSMSSNYLWSWVRQTPGKGLQWIGDIFHSGRTYYNPSLKRRVTISVDKSKNQFSLKLSSVTAADTAVYYCARQGWTTPFDYWGQGTPVTVSS
VL: DIQLTQSPSSVSASVGDRVTITCRASQGISSWLAWYQQKPGKAPKLLIYAASSLQSGVPSRFSGSGSGTDFTLTISSLQPEDFATYYCLQDVYYPWTFGQGTTVEIK
B4: C-B71 (antibody, V domains shown)
VH: QVQLQESGPGLVKPSQTLSLTCTVSGGSISSGGYYWSWIRQHPGKGLEWIGYIYYSGSTYYNPSLKSRVTISVDTSKNQFSLKLSSVTAADTAVYYCAREGVAAAGIDYWGQGTPVTVSS
VL: NIQLTQSPSSVSASVGDRVTITCRASQGISSWLAWYQQKPGKAPKLLISTASSVQSGVPTRFSASGSGTDFTLTISSLQPEDFATYYCQQGYRTPWTFGQGTKVEIK
B5: H5 (antibody, V domains shown)
VH: QLQLQESGPGLVKPPGTLSLTCAVSGGSISSSNWWSWVRQPPGKGLEWIGEIYHSGSTNYNPSLKSRVTISVDTSKNQFSLKLSSVTAADTAVYYCAVYDFWSGSGLDYWGQGTLVTVSS
VL: SYVLTQPPSVSVSPGQTASITCSGDKLGDKFASWYQQKPGQSPVLVIYQDRKRPSRIPERFSGSNSGNTATLTITGTQTIDEADYYCQAWDSGTVIFGGGTKLTVL
B6: A15 (antibody, V domains shown)
VH: EVQLLESGGGLIQPGGSLRLSCAASGFTVSSNYMSWVRQAPGKGLEWVSVIYSGGSTYYADSVKGRFTISRDNSKNTLYLQMNSLRAEDTAVYYCAREVEGGMDVWGQGTTVTVSS
VL: SYVLTQPPSVSVSPGQTASIICSGDKLGDKYVYWYQQKSGQSPVLVIYQDRKRPSGIPERFSGSNSGNTASLAISGLQSEDEADYYCAAWDDSLNGWVFGGGTKLTVL
B7: C-C081 (antibody, V domains shown)
VH: QVQLLESGGGLVKPGGSLRLSCAASGFTFSSYSMNWVRQAPGKGLEWVSSISSSSSYIYYADSVKGRFTISRDNAKNSLYLQMNSLRAEDTAVYYCARDHYPGPDAFDVWGQGTMVTVSS
VL: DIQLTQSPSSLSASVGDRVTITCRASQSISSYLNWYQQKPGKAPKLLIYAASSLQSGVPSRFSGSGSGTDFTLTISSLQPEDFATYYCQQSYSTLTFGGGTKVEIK
B8: H21 (antibody, V domains shown)
VH: EVQLVQSGGGLVQPGRSLRLSCAASGFTFDDYAMHWVRQAPGKGLEWVSGISWNSGSIGYADSVKGRFTISRDNAKNSLYLQMNSLRAEDTALYYCAKDIGGSYFDYYYYGMDVWGQGTLVTVSS
VL: EIVLTQSPATLSLSPGERATLSCRTSHNVNTYIAWYQQKPGQAPRLLFYDSSTRLPDTPARFSGSGSGTDFTLTISSLEPEDFAVYYCQQRTSWPLTFGGGTKVEIK
B9: H12 (antibody, V domains shown)
VH: QVQLQESGPGLVKPSGTLSLTCAVSGGSISSSNWWSWVRQPPGKGLEWIGEIYHSGSTNYNPSLKSRVTISVDKSKNQFSLKLSSVTAADTAVYYCARFVSSGYLGAFDIWGQGTMVTVSS
VL: QSVLTQPPSVSVSPGQTASITCSGDRLGDKYSYWYQQKPGQSPVLVIYQDSKRPSGIPERFSGSNSGNTATLTISGTQAMDEADYYCQVWDSSTAVFGGGTKLTVL
B10: H74 (antibody, V domains shown)
VH: QVQLQQWGAGLLKPSETLSLTCAVYGGSFSGYYWSWIRQPPGKGLEWIGEINHSGSTNYNPSLKSRVTISVDTSKNQFSLKLSSVTAADTAVYYCAGTRWLQFPLNYWGQGTLVTVSS
VL: SYVLTQPPSVSVSPGQTASITCSGDKLGDKYAYWYQQKPGQSPVLVLYQDAKRPSGIPERFSGSNSGNTATLTISGTQAMDEADYYCQAWDSSTAGYVFGTGTKVTVL
B11: B13 (antibody, V domains shown)
VH: QVQLQQWGAGLLKPSETLSLTCAISSGSFSGYYWTWIRQPPGKGLEWIGETNHNGFTTYNTSLKSRITISIDASKNQFYLNLSSVTAADTATYFCARGPAYYADALDGFDIWGQGTMVTVSS
VL: B10 VL with S1Q, Y2S, A32V, Y33S, L47I, A51N, A95K, G96A, T101A

Numbering of substitutions follows the chain as printed.

In one assay the target is HuCD100-His (human, UniProt Q92854). Nature of the assay: ELISA. (ELISA stands for enzyme-linked immunosorbent assay.)
Sequence of HuCD100-His (Q92854 22-734): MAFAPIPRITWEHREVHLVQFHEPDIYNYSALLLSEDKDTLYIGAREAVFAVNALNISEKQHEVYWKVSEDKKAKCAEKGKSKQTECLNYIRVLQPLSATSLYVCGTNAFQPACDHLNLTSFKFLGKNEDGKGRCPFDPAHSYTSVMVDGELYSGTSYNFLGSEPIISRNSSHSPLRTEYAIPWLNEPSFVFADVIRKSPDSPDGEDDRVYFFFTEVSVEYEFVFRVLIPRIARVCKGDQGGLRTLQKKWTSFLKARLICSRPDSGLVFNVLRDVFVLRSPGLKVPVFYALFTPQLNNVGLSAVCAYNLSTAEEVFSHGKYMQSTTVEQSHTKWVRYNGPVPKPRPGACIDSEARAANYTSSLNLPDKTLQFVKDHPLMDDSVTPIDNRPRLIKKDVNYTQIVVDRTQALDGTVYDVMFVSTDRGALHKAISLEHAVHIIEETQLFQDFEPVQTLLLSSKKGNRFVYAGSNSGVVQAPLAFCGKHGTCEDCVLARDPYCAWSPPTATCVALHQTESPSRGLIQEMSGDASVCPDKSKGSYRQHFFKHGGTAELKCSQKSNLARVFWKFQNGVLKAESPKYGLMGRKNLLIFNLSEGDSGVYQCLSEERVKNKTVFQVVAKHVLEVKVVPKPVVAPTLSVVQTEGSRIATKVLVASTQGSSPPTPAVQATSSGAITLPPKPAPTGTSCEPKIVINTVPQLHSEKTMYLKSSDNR
What is called EC50 is the concentration that produces a half-maximal response. The low end stands for an effect from little substance, the high end for a need for much substance. With B1, it took 0.00968 µg/mL to reach a half-maximal effect (EC50).

B2 returned an EC50 of 0.00613 µg/mL.

B3 displayed an EC50 of 0.0107 µg/mL.

Turning to B4, a half-maximal effect (EC50) was put at 0.0119 µg/mL. The EC50 values of the last two molecules are within 1.5-fold of each other.

B5 gave an EC50 of 0.00639 µg/mL.

For B6, a half-maximal response (EC50) required 0.0076 µg/mL. The EC50 values of the last two molecules are within 1.5-fold of each other.

Consider B7, for which the EC50 was determined as 0.0141 µg/mL. This EC50 lies about 1.9-fold higher than the previous one.

For the molecule B8, the midpoint of the response, the EC50, lay at 0.00595 µg/mL.

B9 gave an EC50 of 0.0113 µg/mL.

For B10, the EC50 was 0.00467 µg/mL. This EC50 is about 2.4-fold lower than that of the molecule before.

Consider B11, for which the EC50 amounted to 0.00733 µg/mL.

For the next assay, the target named is T1, HuCD100 (cell surface) (human, UniProt Q92854). As to the kind of experiment: FACS, Jurkat. Background: A flow cytometer gives signals particle by particle.
T1 sequence (Q92854 22-734): as above
B1 had an EC50 of 0.0162 µg/mL.

Consider B2, for which the half-maximal effective concentration (EC50) turned out to be 0.0195 µg/mL.

Consider B3, for which the EC50 is 0.449 µg/mL.

Molecule B4 came in with an EC50 of 0.108 µg/mL.

Turning to B5, the EC50 came out at 0.0184 µg/mL. This EC50 lies about 5.9-fold lower than the previous one.

Molecule B6 registered an EC50 of 0.00851 µg/mL.

B7 yielded an EC50 of 0.73 µg/mL.

As to B8, the midpoint of the response, the EC50, lay at 0.0258 µg/mL.

B9 showed an EC50 of 0.028 µg/mL.

As for B10, the midpoint of the response, the EC50, lay at 0.0138 µg/mL.

B11 gave an EC50 of 0.0185 µg/mL.

A further assay has as its target T2, MusCD100-His (mouse, UniProt O09126).
T2 chain: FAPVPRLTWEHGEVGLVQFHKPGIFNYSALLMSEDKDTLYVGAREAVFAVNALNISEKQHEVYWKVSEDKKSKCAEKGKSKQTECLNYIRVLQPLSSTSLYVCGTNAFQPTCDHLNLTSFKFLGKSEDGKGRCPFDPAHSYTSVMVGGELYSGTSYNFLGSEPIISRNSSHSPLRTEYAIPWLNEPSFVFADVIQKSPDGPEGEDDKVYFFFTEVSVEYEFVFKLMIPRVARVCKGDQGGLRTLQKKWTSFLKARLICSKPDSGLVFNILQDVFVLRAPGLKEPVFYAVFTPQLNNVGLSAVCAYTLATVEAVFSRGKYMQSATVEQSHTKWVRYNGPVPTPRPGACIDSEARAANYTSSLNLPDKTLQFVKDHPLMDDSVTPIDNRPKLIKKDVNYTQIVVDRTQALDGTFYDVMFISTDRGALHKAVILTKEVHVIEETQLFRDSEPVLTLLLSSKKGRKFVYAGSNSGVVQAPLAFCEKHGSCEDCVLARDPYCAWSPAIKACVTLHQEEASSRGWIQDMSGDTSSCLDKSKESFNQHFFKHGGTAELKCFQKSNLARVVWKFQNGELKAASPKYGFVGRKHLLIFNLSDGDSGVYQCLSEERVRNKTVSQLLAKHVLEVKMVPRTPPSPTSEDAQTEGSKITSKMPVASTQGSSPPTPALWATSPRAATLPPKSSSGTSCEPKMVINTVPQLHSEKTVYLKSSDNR
As to the kind of experiment: ELISA.
As for B1, the EC50 was determined as 0.0109 µg/mL.

On to B2, for which the midpoint of the response, the EC50, lay at 0.00792 µg/mL.

Molecule B3 showed an EC50 of 0.031 µg/mL.

B4 showed an EC50 of 0.00936 µg/mL. This EC50 lies about 3.3-fold lower than the previous one.

Molecule B5 returned an EC50 of 0.00722 µg/mL.

Consider B6, for which it took 0.0101 µg/mL to reach a half-maximal effect (EC50).

B7 showed an EC50 of 0.0541 µg/mL.

Molecule B8 yielded an EC50 of 0.00686 µg/mL.

B9 came in with an EC50 of 0.0112 µg/mL.

B10 came in with an EC50 of 0.00478 µg/mL. This EC50 lies about 2.3-fold lower than the previous one.

B11 showed an EC50 of 0.00842 µg/mL.

In another assay the target is T1, HuCD100 (cell surface). Nature of the assay: FACS, HEK293.
In turn, B1 returned a half-maximal effective concentration (EC50) of 0.0225 µg/mL.

Consider B2, for which the response was half-maximal at 0.0277 µg/mL (EC50).

The molecule B3 displayed an EC50 of 0.167 µg/mL.

In the case of B4, a half-maximal response (EC50) required 0.0879 µg/mL. This EC50 is about 1.9-fold lower than that of the molecule before.

With B5, the midpoint of the response, the EC50, lay at 0.0288 µg/mL. Compared with the last molecule, the EC50 is about 3.1-fold lower.

The molecule B6 returned an EC50 of 0.0269 µg/mL.

With B7, the EC50 was 0.0927 µg/mL. Against the preceding molecule, the EC50 is about 3.4-fold higher.

As for B8, a half-maximal response (EC50) required 0.0374 µg/mL.

With B9, a half-maximal response (EC50) required 0.0369 µg/mL.

As for B10, it took 0.0274 µg/mL to reach a half-maximal effect (EC50).

Molecule B11 displayed an EC50 of 0.0346 µg/mL.

The target of the next assay is T3, MusCD100 (cell surface) (mouse, UniProt O09126).
T3 chain: T2 chain
As to the kind of experiment: FACS, HEK293.
In turn, B1 yielded an EC50 of 0.0504 µg/mL.

B2: a half-maximal response (EC50) required 0.0599 µg/mL.

In turn, B3 returned an EC50 of 0.31 µg/mL.

B4 had an EC50 of 0.118 µg/mL.

In turn, B5 returned an EC50 of 0.0606 µg/mL.

The molecule B6 gave an EC50 of 0.0548 µg/mL.

In turn, B7 gave an EC50 of 0.185 µg/mL.

In turn, B8 returned an EC50 of 0.0814 µg/mL.

Take B9: a half-maximal response (EC50) required 0.0758 µg/mL. The EC50 values of the last two molecules are within 1.5-fold of each other.

In turn, B10 had an EC50 of 0.05 µg/mL.

The molecule B11 showed an EC50 of 0.0697 µg/mL.

The target in the next assay is T1, HuCD100 (cell surface). As to the kind of experiment: FACS, HuPBMC.
In the case of B1, it took 0.0104 µg/mL to reach a half-maximal effect (EC50).

Molecule B2 showed an EC50 of 0.0145 µg/mL.

The molecule B3 yielded an EC50 of 0.0859 µg/mL.

Regarding B4, the EC50 was 0.177 µg/mL. This EC50 is about 2.1-fold higher than that of the molecule before.

B5 yielded an EC50 of 0.0132 µg/mL.

In turn, B6 came in with an EC50 of 0.00589 µg/mL.

B7: the EC50 was 0.0194 µg/mL.

B8 came in with an EC50 of 0.0154 µg/mL.

For the molecule B9, the response was half-maximal at 0.0177 µg/mL (EC50).

In turn, B10 returned an EC50 of 0.00828 µg/mL.

The molecule B11 had an EC50 of 0.0109 µg/mL.
